This is an account of results in the supplement of paper PMC10567573.

To fix the notation:
B1: TRIM63 (parent)
chain: FRCPTCRHEVIMDRHGVYGLQRNL
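Further: lentivirally expressed fusions sorted by FACS into six bins by GFP to DsRed ratio, PSI derived from sequencing read proportions per bin multiplied by bin number.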

The variants in this series derive from B1. Kind of series: protein stability index of a GFP-peptide fusion (GPS, HEK-293T) (PSI 1-6); higher = more stable. The settings on record: c terminus: a fixed tail appended.
Regarding FRCPTCRHEVIMDRHPVYGLQRNL, the protein stability index amounted to 2.25.
As for FRCPTCRHEVIMDRHRVYGLQRNL, the protein stability index was 1.83.
The figure for FRCPTCRHEVIMDRHEVYGLQRNL is 1.87.
For FRCPTCRHEVIMDRHYVYGLQRNL, the protein stability index amounted to 2.49.
FRCPTCRHEVIMDRHHVYGLQRNL: the protein stability index was 2.34.
Consider FRCPTCRHEVIMDRHMVYGLQRNL, for which the protein stability index stood at 2.15.
Consider FRCPTCRHEVIMDRHTVYGLQRNL, for which the protein stability index is 1.65.
Turning to FRCPTCRHEVIMDRHSVYGLQRNL, the protein stability index was 1.97.
As for FRCPTCRHEVIMDRHVVYGLQRNL, the protein stability index worked out at 1.69.
In the case of FRCPTCRHEVIMDRHFVYGLQRNL, the protein stability index came to 2.65.
On to FRCPTCRHEVIMDRHLVYGLQRNL, for which the protein stability index amounted to 2.21.
Take FRCPTCRHEVIMDRHDVYGLQRNL: the protein stability index came out at 2.47.
With FRCPTCRHEVIMDRHNVYGLQRNL, the protein stability index is 2.2.
FRCPTCRHEVIMDRHCVYGLQRNL: the protein stability index worked out at 2.42.
With FRCPTCRHEVIMDRHWVYGLQRNL, the protein stability index was 2.31.
With FRCPTCRHEVIMDRHKVYGLQRNL, the protein stability index is 2.39.
For the variant FRCPTCRHEVIMDRHAVYGLQRNL, the protein stability index is 2.15.
Take FRCPTCRHEVIMDRHIVYGLQRNL: the protein stability index is 2.15.
For the variant FRCPTCRHEVIMDRHQVYGLQRNL, the protein stability index came to 2.33.
With FRCPTCRHEVIMDRHGLYGLQRNL, the protein stability index is 2.08.
FRCPTCRHEVIMDRHGCYGLQRNL: the protein stability index was 2.47.
As for FRCPTCRHEVIMDRHGKYGLQRNL, the protein stability index was 2.19.
Take FRCPTCRHEVIMDRHGRYGLQRNL: the protein stability index turned out to be 1.53.
As to FRCPTCRHEVIMDRHGNYGLQRNL, the protein stability index worked out at 2.28.
The figure for FRCPTCRHEVIMDRHGIYGLQRNL is 2.41.
On to FRCPTCRHEVIMDRHGFYGLQRNL, for which the protein stability index worked out at 2.75.
As to FRCPTCRHEVIMDRHGMYGLQRNL, the protein stability index was found to be 1.69.
For FRCPTCRHEVIMDRHGQYGLQRNL, the protein stability index came out at 3.
On to FRCPTCRHEVIMDRHGYYGLQRNL, for which the protein stability index stood at 2.19.
Turning to FRCPTCRHEVIMDRHGEYGLQRNL, the protein stability index came to 1.43.
In the case of FRCPTCRHEVIMDRHGGYGLQRNL, the protein stability index turned out to be 3.09.
Take FRCPTCRHEVIMDRHGSYGLQRNL: the protein stability index was determined as 2.77.
On to FRCPTCRHEVIMDRHGTYGLQRNL, for which the protein stability index is 2.66.
Regarding FRCPTCRHEVIMDRHGPYGLQRNL, the protein stability index was 2.26.
In the case of FRCPTCRHEVIMDRHGWYGLQRNL, the protein stability index stood at 1.8.
For FRCPTCRHEVIMDRHGHYGLQRNL, the protein stability index turned out to be 2.23.
Turning to FRCPTCRHEVIMDRHGAYGLQRNL, the protein stability index came to 2.98.
The figure for FRCPTCRHEVIMDRHGDYGLQRNL is 1.58; for FRCPTCRHEAIMDRHGVYGLQRNL it is 2.65; for FRCPTCRHEKIMDRHGVYGLQRNL it is 3.42.
The figure for FRCPTCRHEDIMDRHGVYGLQRNL is 2.9; for FRCPTCRHEYIMDRHGVYGLQRNL it is 2.05; for FRCPTCRHEQIMDRHGVYGLQRNL it is 1.8.
Turning to FRCPTCRHELIMDRHGVYGLQRNL, the protein stability index was found to be 2.73.
FRCPTCRHEHIMDRHGVYGLQRNL: the protein stability index was 1.59.
On to FRCPTCRHEEIMDRHGVYGLQRNL, for which the protein stability index stood at 1.91.
The figure for FRCPTCRHERIMDRHGVYGLQRNL is 2.41; for FRCPTCRHEIIMDRHGVYGLQRNL it is 2.51.
On to FRCPTCRHECIMDRHGVYGLQRNL, for which the protein stability index was determined as 2.18.
Regarding FRCPTCRHEGIMDRHGVYGLQRNL, the protein stability index is 2.58.
To FRCPTCRHEWIMDRHGVYGLQRNL belongs 2.16; to FRCPTCRHEPIMDRHGVYGLQRNL, 1.76; to FRCPTCRHESIMDRHGVYGLQRNL, 3.91.
As to FRCPTCRHENIMDRHGVYGLQRNL, the protein stability index stood at 3.46.
As to FRCPTCRHEMIMDRHGVYGLQRNL, the protein stability index is 1.74.
FRCPTCRHEFIMDRHGVYGLQRNL: the protein stability index worked out at 2.25.
Turning to FRCPTCRHETIMDRHGVYGLQRNL, the protein stability index stood at 2.62.
The figure for FRCPTCRHEVIMDRWGVYGLQRNL is 2.11; for FRCPTCRHEVIMDRIGVYGLQRNL it is 2.19; for FRCPTCRHEVIMDRFGVYGLQRNL it is 1.67.
On to FRCPTCRHEVIMDRMGVYGLQRNL, for which the protein stability index was 2.71.
Take FRCPTCRHEVIMDRTGVYGLQRNL: the protein stability index was found to be 2.46.
Consider FRCPTCRHEVIMDRYGVYGLQRNL, for which the protein stability index came out at 2.49.
In the case of FRCPTCRHEVIMDRRGVYGLQRNL, the protein stability index came to 1.48.
For FRCPTCRHEVIMDRCGVYGLQRNL, the protein stability index worked out at 2.32.
In the case of FRCPTCRHEVIMDRQGVYGLQRNL, the protein stability index worked out at 3.54.
With FRCPTCRHEVIMDRNGVYGLQRNL, the protein stability index worked out at 2.13.
FRCPTCRHEVIMDRVGVYGLQRNL: the protein stability index was found to be 3.01.
Consider FRCPTCRHEVIMDRDGVYGLQRNL, for which the protein stability index was determined as 2.08.
On to FRCPTCRHEVIMDRGGVYGLQRNL, for which the protein stability index worked out at 2.12.
On to FRCPTCRHEVIMDRPGVYGLQRNL, for which the protein stability index is 2.66.
Regarding FRCPTCRHEVIMDRKGVYGLQRNL, the protein stability index turned out to be 2.16.
Turning to FRCPTCRHEVIMDREGVYGLQRNL, the protein stability index came to 2.43.
In the case of FRCPTCRHEVIMDRLGVYGLQRNL, the protein stability index was determined as 2.17.
For the variant FRCPTCRHEVIMDRSGVYGLQRNL, the protein stability index was 2.44.
Consider FRCPTCRHEVIMDRAGVYGLQRNL, for which the protein stability index turned out to be 1.67.
FRCPTCRHEVITDRHGVYGLQRNL: the protein stability index came out at 2.59.
FRCPTCRHEVISDRHGVYGLQRNL: the protein stability index turned out to be 3.59.
Take FRCPTCRHEVILDRHGVYGLQRNL: the protein stability index turned out to be 2.66.
With FRCPTCRHEVIVDRHGVYGLQRNL, the protein stability index was determined as 2.98.
Turning to FRCPTCRHEVIADRHGVYGLQRNL, the protein stability index was 2.35.
With FRCPTCRHEVIFDRHGVYGLQRNL, the protein stability index came out at 2.18.
For FRCPTCRHEVIGDRHGVYGLQRNL, the protein stability index was found to be 2.8.
As to FRCPTCRHEVIYDRHGVYGLQRNL, the protein stability index came to 1.73.
Consider FRCPTCRHEVIEDRHGVYGLQRNL, for which the protein stability index was found to be 2.19.
The figure for FRCPTCRHEVIRDRHGVYGLQRNL is 2.11; for FRCPTCRHEVIDDRHGVYGLQRNL it is 1.99.
In the case of FRCPTCRHEVIQDRHGVYGLQRNL, the protein stability index is 2.29.
On to FRCPTCRHEVICDRHGVYGLQRNL, for which the protein stability index came to 2.02.
With FRCPTCRHEVIPDRHGVYGLQRNL, the protein stability index turned out to be 1.62.
The figure for FRCPTCRHEVIHDRHGVYGLQRNL is 2.06.
Take FRCPTCRHEVIIDRHGVYGLQRNL: the protein stability index amounted to 3.22.
The figure for FRCPTCRHEVIWDRHGVYGLQRNL is 2.17; for FRCPTCRHEVIMDRHGVVGLQRNL it is 1.67.
